B1: AB200-(2Vk8)_R2-CDR1-hs-v4 (antibody)
heavy: QVQLVQSGAEVKKPGSSVKVSCKASGGTFSSYAISWVRQAPGQGLEWMGATYRSQSDTFYNQKFKSRVTITADKSTSTAYMELSSLRSEDTAVYYCARGAVYHGYDVIDNWGQGTLVTVSSASTKGPSVFPLAPSSKSTSGGTAALGCLVKDYFPEPVTVSWNSGALTSGVHTFPAVLQSSGLYSLSSVVTVPSSSLGTQTYICNVNHKPSNTKVDKKVEPKSC
light: DIQMTQSPSSLSASVGDRVTITCRASQSISSYINWYQQKPGKAPKLLIYATSNLQIGVPSRFSGSGSGTDFTLTISSLQPEDFATYYCQQFRKLPWSFGQGTKLEIKRTVAAPSVFIFPPSDEQLKSGTASVVCLLNNFYPREAKVQWKVDNALQSGNSQESVTEQDSKDSTYSLSSTLTLSKADYEKHKVYACEVTHQGLSSPVTKSFNRGEC
B2: AB200-R1H32-R2Vk40 (antibody)
heavy: QVQLVQSGAEVKKPGSSVKVSCKASGGTFSNYWMHWVRQAPGQGLEWMGATYRSHSDTYYNQKFKSRVTITADKSTSTAYMELSSLRSEDTAVYYCARGAIYHGYDVIDNWGQGTLVTVSSASTKGPSVFPLAPSSKSTSGGTAALGCLVKDYFPEPVTVSWNSGALTSGVHTFPAVLQSSGLYSLSSVVTVPSSSLGTQTYICNVNHKPSNTKVDKKVEPKSC
light: DIQMTQSPSSLSASVGDRVTITCRASQSISSYINWYQQKPGKAPKLLIYATSNIQSGVPSRFSGSGSGTDFTLTISSLQPEDFATYYCQQYRRIPWTFGQGTKLEIKRTVAAPSVFIFPPSDEQLKSGTASVVCLLNNFYPREAKVQWKVDNALQSGNSQESVTEQDSKDSTYSLSSTLTLSKADYEKHKVYACEVTHQGLSSPVTKSFNRGEC
B3: AB200-R1H32-R2Vk43 (antibody)
heavy: QVQLVQSGAEVKKPGSSVKVSCKASGGTFSNYWMHWVRQAPGQGLEWMGATYRSHSDTYYNQKFKSRVTITADKSTSTAYMELSSLRSEDTAVYYCARGAIYHGYDVIDNWGQGTLVTVSSASTKGPSVFPLAPSSKSTSGGTAALGCLVKDYFPEPVTVSWNSGALTSGVHTFPAVLQSSGLYSLSSVVTVPSSSLGTQTYICNVNHKPSNTKVDKKVEPKSC
light: DIQMTQSPSSLSASVGDRVTITCRASQSISSYINWYQQKPGKAPKLLIYATSNIQSGVPSRFSGSGSGTDFTLTISSLQPEDFATYYCQQFRKIPWTFGQGTKLEIKRTVAAPSVFIFPPSDEQLKSGTASVVCLLNNFYPREAKVQWKVDNALQSGNSQESVTEQDSKDSTYSLSSTLTLSKADYEKHKVYACEVTHQGLSSPVTKSFNRGEC
B4: AB200-R1H32-R2Vk47 (antibody)
heavy: QVQLVQSGAEVKKPGSSVKVSCKASGGTFSNYWMHWVRQAPGQGLEWMGATYRSHSDTYYNQKFKSRVTITADKSTSTAYMELSSLRSEDTAVYYCARGAIYHGYDVIDNWGQGTLVTVSSASTKGPSVFPLAPSSKSTSGGTAALGCLVKDYFPEPVTVSWNSGALTSGVHTFPAVLQSSGLYSLSSVVTVPSSSLGTQTYICNVNHKPSNTKVDKKVEPKSC
light: DIQMTQSPSSLSASVGDRVTITCRASQSISSYINWYQQKPGKAPKLLIYATSNLQIGVPSRFSGSGSGTDFTLTISSLQPEDFATYYCQQYRKIPWSFGQGTKLEIKRTVAAPSVFIFPPSDEQLKSGTASVVCLLNNFYPREAKVQWKVDNALQSGNSQESVTEQDSKDSTYSLSSTLTLSKADYEKHKVYACEVTHQGLSSPVTKSFNRGEC
B5: AB200-R1H32-R2Vk4 (antibody)
heavy: QVQLVQSGAEVKKPGSSVKVSCKASGGTFSNYWMHWVRQAPGQGLEWMGATYRSHSDTYYNQKFKSRVTITADKSTSTAYMELSSLRSEDTAVYYCARGAIYHGYDVIDNWGQGTLVTVSSASTKGPSVFPLAPSSKSTSGGTAALGCLVKDYFPEPVTVSWNSGALTSGVHTFPAVLQSSGLYSLSSVVTVPSSSLGTQTYICNVNHKPSNTKVDKKVEPKSC
light: DIQMTQSPSSLSASVGDRVTITCRASQSISSYLNWYQQKPGKAPKLLIYATSNIQSGVPSRFSGSGSGTDFTLTISSLQPEDFATYYCQQFRKLPWSFGQGTKLEIKRTVAAPSVFIFPPSDEQLKSGTASVVCLLNNFYPREAKVQWKVDNALQSGNSQESVTEQDSKDSTYSLSSTLTLSKADYEKHKVYACEVTHQGLSSPVTKSFNRGEC
B6: AB200-R1H32-R2Vk8 (antibody)
heavy: QVQLVQSGAEVKKPGSSVKVSCKASGGTFSNYWMHWVRQAPGQGLEWMGATYRSHSDTYYNQKFKSRVTITADKSTSTAYMELSSLRSEDTAVYYCARGAIYHGYDVIDNWGQGTLVTVSSASTKGPSVFPLAPSSKSTSGGTAALGCLVKDYFPEPVTVSWNSGALTSGVHTFPAVLQSSGLYSLSSVVTVPSSSLGTQTYICNVNHKPSNTKVDKKVEPKSC
light: DIQMTQSPSSLSASVGDRVTITCRASQSISSYINWYQQKPGKAPKLLIYATSNLQIGVPSRFSGSGSGTDFTLTISSLQPEDFATYYCQQFRKLPWSFGQGTKLEIKRTVAAPSVFIFPPSDEQLKSGTASVVCLLNNFYPREAKVQWKVDNALQSGNSQESVTEQDSKDSTYSLSSTLTLSKADYEKHKVYACEVTHQGLSSPVTKSFNRGEC
B7: AB200-R1H32-R2Vk41 (antibody)
heavy: QVQLVQSGAEVKKPGSSVKVSCKASGGTFSNYWMHWVRQAPGQGLEWMGATYRSHSDTYYNQKFKSRVTITADKSTSTAYMELSSLRSEDTAVYYCARGAIYHGYDVIDNWGQGTLVTVSSASTKGPSVFPLAPSSKSTSGGTAALGCLVKDYFPEPVTVSWNSGALTSGVHTFPAVLQSSGLYSLSSVVTVPSSSLGTQTYICNVNHKPSNTKVDKKVEPKSC
light: DIQMTQSPSSLSASVGDRVTITCRASQSISSYINWYQQKPGKAPKLLIYATSNIQSGVPSRFSGSGSGTDFTLTISSLQPEDFATYYCQQFRRLPWTFGQGTKLEIKRTVAAPSVFIFPPSDEQLKSGTASVVCLLNNFYPREAKVQWKVDNALQSGNSQESVTEQDSKDSTYSLSSTLTLSKADYEKHKVYACEVTHQGLSSPVTKSFNRGEC
B8: AB200-R1H32-R2Vk6 (antibody)
heavy: QVQLVQSGAEVKKPGSSVKVSCKASGGTFSNYWMHWVRQAPGQGLEWMGATYRSHSDTYYNQKFKSRVTITADKSTSTAYMELSSLRSEDTAVYYCARGAIYHGYDVIDNWGQGTLVTVSSASTKGPSVFPLAPSSKSTSGGTAALGCLVKDYFPEPVTVSWNSGALTSGVHTFPAVLQSSGLYSLSSVVTVPSSSLGTQTYICNVNHKPSNTKVDKKVEPKSC
light: DIQMTQSPSSLSASVGDRVTITCRASQSISSYINWYQQKPGKAPKLLIYATSNLQSGVPSRFSGSGSGTDFTLTISSLQPEDFATYYCQQFRKLPWSFGQGTKLEIKRTVAAPSVFIFPPSDEQLKSGTASVVCLLNNFYPREAKVQWKVDNALQSGNSQESVTEQDSKDSTYSLSSTLTLSKADYEKHKVYACEVTHQGLSSPVTKSFNRGEC
B9: AB200-R1H32-R2Vk17 (antibody)
heavy: QVQLVQSGAEVKKPGSSVKVSCKASGGTFSNYWMHWVRQAPGQGLEWMGATYRSHSDTYYNQKFKSRVTITADKSTSTAYMELSSLRSEDTAVYYCARGAIYHGYDVIDNWGQGTLVTVSSASTKGPSVFPLAPSSKSTSGGTAALGCLVKDYFPEPVTVSWNSGALTSGVHTFPAVLQSSGLYSLSSVVTVPSSSLGTQTYICNVNHKPSNTKVDKKVEPKSC
light: DIQMTQSPSSLSASVGDRVTITCRASQSISSYINWYQQKPGKAPKLLIYAASSLQSGVPSRFSGSGSGTDFTLTISSLQPEDFATYYCQQYRKIPWSFGQGTKLEIKRTVAAPSVFIFPPSDEQLKSGTASVVCLLNNFYPREAKVQWKVDNALQSGNSQESVTEQDSKDSTYSLSSTLTLSKADYEKHKVYACEVTHQGLSSPVTKSFNRGEC
B10: AB200-R1H32-R2Vk7 (antibody)
heavy: QVQLVQSGAEVKKPGSSVKVSCKASGGTFSNYWMHWVRQAPGQGLEWMGATYRSHSDTYYNQKFKSRVTITADKSTSTAYMELSSLRSEDTAVYYCARGAIYHGYDVIDNWGQGTLVTVSSASTKGPSVFPLAPSSKSTSGGTAALGCLVKDYFPEPVTVSWNSGALTSGVHTFPAVLQSSGLYSLSSVVTVPSSSLGTQTYICNVNHKPSNTKVDKKVEPKSC
light: DIQMTQSPSSLSASVGDRVTITCRASQSISSYINWYQQKPGKAPKLLIYATSNIQSGVPSRFSGSGSGTDFTLTISSLQPEDFATYYCQQFRKLPWSFGQGTKLEIKRTVAAPSVFIFPPSDEQLKSGTASVVCLLNNFYPREAKVQWKVDNALQSGNSQESVTEQDSKDSTYSLSSTLTLSKADYEKHKVYACEVTHQGLSSPVTKSFNRGEC
B11: AB200-R1H32-R2Vk42 (antibody)
heavy: QVQLVQSGAEVKKPGSSVKVSCKASGGTFSNYWMHWVRQAPGQGLEWMGATYRSHSDTYYNQKFKSRVTITADKSTSTAYMELSSLRSEDTAVYYCARGAIYHGYDVIDNWGQGTLVTVSSASTKGPSVFPLAPSSKSTSGGTAALGCLVKDYFPEPVTVSWNSGALTSGVHTFPAVLQSSGLYSLSSVVTVPSSSLGTQTYICNVNHKPSNTKVDKKVEPKSC
light: DIQMTQSPSSLSASVGDRVTITCRASQSISSYINWYQQKPGKAPKLLIYATSNIQSGVPSRFSGSGSGTDFTLTISSLQPEDFATYYCQQYRKIPWSFGQGTKLEIKRTVAAPSVFIFPPSDEQLKSGTASVVCLLNNFYPREAKVQWKVDNALQSGNSQESVTEQDSKDSTYSLSSTLTLSKADYEKHKVYACEVTHQGLSSPVTKSFNRGEC
B12: AB200-R1H32-R2Vk2 (antibody)
heavy: QVQLVQSGAEVKKPGSSVKVSCKASGGTFSNYWMHWVRQAPGQGLEWMGATYRSHSDTYYNQKFKSRVTITADKSTSTAYMELSSLRSEDTAVYYCARGAIYHGYDVIDNWGQGTLVTVSSASTKGPSVFPLAPSSKSTSGGTAALGCLVKDYFPEPVTVSWNSGALTSGVHTFPAVLQSSGLYSLSSVVTVPSSSLGTQTYICNVNHKPSNTKVDKKVEPKSC
light: DIQMTQSPSSLSASVGDRVTITCRASQSISSYINWYQQKPGKAPKLLIYAASSLQSGVPSRFSGSGSGTDFTLTISSLQPEDFATYYCQQFRKLPWSFGQGTKLEIKRTVAAPSVFIFPPSDEQLKSGTASVVCLLNNFYPREAKVQWKVDNALQSGNSQESVTEQDSKDSTYSLSSTLTLSKADYEKHKVYACEVTHQGLSSPVTKSFNRGEC

The first series is described as follows: ThermoFluor thermostability (Tm). The format is physicochemical. To be noted: Fab fragment; heavy chain clone paired with light chain AB200-(2Vk8). On the technique in general: Differential scanning fluorimetry follows unfolding on heating by fluorescence.
As for B1, the Tm is 76.495 °C.

The same series, now with this note: Fab fragment; light chain clone paired with heavy chain AB200_R1_VH32.
Turning to B2, the Tm was determined as 76.379 °C.
Regarding B3, the Tm amounted to 78.820 °C.
As for B4, the Tm came out at 75.976 °C.
Still for that read-out and setting: the same measure for B5: 79.449 °C.
The same measure, in the same setting: the same measure for B6: 80.002 °C; for B7: 79.593 °C; for B8: 79.773 °C.
Take B9: the Tm came out at 76.415 °C.
The same measure, in the same setting: the same measure for B10: 79.001 °C; for B11: 75.027 °C; for B12: 79.715 °C.

These data come from US12043670B2, “Anti-BCMA antibody-drug conjugates and methods of use” (Eisai R&D Management Co., Ltd., priority 2020, dated 2024).
